Source: patent publication US20250262210A1 (TRUSTEES OF COLUMBIA UNIVERSITY IN THE CITY OF NEW YORK, published 2025)

T1: GTF3C2 (human, UniProt Q8WUA4 1-911, limits assumed)
T1 sequence (looked up): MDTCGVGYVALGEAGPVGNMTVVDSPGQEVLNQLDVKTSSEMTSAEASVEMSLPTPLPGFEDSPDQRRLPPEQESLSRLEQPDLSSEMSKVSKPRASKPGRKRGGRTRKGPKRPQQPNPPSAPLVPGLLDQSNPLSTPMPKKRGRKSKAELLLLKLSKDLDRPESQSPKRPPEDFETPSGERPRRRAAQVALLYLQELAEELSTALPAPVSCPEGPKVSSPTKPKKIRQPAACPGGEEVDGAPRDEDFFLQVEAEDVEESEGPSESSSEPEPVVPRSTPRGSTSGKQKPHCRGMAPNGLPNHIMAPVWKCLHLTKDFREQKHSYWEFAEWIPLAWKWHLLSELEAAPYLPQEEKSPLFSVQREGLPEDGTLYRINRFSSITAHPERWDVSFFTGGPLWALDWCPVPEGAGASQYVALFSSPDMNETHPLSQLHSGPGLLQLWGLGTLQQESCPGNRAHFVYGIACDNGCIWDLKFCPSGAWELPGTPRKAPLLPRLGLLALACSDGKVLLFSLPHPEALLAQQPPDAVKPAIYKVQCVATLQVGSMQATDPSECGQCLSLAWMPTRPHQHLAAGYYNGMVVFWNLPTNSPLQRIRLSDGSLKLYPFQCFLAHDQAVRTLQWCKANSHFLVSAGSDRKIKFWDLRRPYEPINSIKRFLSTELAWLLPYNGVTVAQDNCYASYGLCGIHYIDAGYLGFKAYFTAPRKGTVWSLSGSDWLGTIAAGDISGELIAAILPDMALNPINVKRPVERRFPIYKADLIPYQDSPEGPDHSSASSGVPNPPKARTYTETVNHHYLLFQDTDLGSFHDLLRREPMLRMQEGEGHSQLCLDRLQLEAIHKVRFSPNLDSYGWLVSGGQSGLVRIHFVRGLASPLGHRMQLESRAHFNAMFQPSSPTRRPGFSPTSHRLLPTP

B1: LZTR1-FLAG (other, human, UniProt Q8N653 1-840, looked up)
chain: MAGPGSTGGQIGAAALAGGARSKVAPSVDFDHSCSDSVEYLTLNFGPFETVHRWRRLPPCDEFVGARRSKHTVVAYKDAIYVFGGDNGKTMLNDLLRFDVKDCSWCRAFTTGTPPAPRYHHSAVVYGSSMFVFGGYTGDIYSNSNLKNKNDLFEYKFATGQWTEWKIEGRLPVARSAHGATVYSDKLWIFAGYDGNARLNDMWTIGLQDRELTCWEEVAQSGEIPPSCCNFPVAVCRDKMFVFSGQSGAKITNNLFQFEFKDKTWTRIPTEHLLRGSPPPPQRRYGHTMVAFDRHLYVFGGAADNTLPNELHCYDVDFQTWEVVQPSSDSEVGGAEVPERACASEEVPTLTYEERVGFKKSRDVFGLDFGTTSAKQPTQPASELPSGRLFHAAAVISDAMYIFGGTVDNNIRSGEMYRFQFSCYPKCTLHEDYGRLWESRQFCDVEFVLGEKEECVQGHVAIVTARSRWLRRKITQARERLAQKLEQEAAPVPREAPGVAAGGARPPLLHVAIREAEARPFEVLMQFLYTDKIKYPRKGHVEDVLLIMDVYKLALSFQLCRLEQLCRQYIEASVDLQNVLVVCESAARLQLSQLKEHCLNFVVKESHFNQVIMMKEFERLSSPLIVEIVRRKQQPPPRTPLDQPVDIGTSLIQDMKAYLEGAGAEFCDITLLLDGHPRPAHKAILAARSSYFEAMFRSFMPEDGQVNISIGEMVPSRQAFESMLRYIYYGEVNMPPEDSLYLFAAPYYYGFYNNRLQAYCKQNLEMNVTVQNVLQILEAADKTQALDMKRHCLHIIVHQFTKVSKLPTLRSLSQQLLLDIIDSLASHISDKQCAELGADI
notes: Expressed in HEK 293T, HeLa or U87 cells; used as cell lysate; also called LZTR1 wild type-FLAG; LZTR1 WT; not shown: FLAG tag at the C-terminus
B2: LZTR1 R810W-FLAG (other, human, UniProt Q8N653 1-840, looked up)
chain: MAGPGSTGGQIGAAALAGGARSKVAPSVDFDHSCSDSVEYLTLNFGPFETVHRWRRLPPCDEFVGARRSKHTVVAYKDAIYVFGGDNGKTMLNDLLRFDVKDCSWCRAFTTGTPPAPRYHHSAVVYGSSMFVFGGYTGDIYSNSNLKNKNDLFEYKFATGQWTEWKIEGRLPVARSAHGATVYSDKLWIFAGYDGNARLNDMWTIGLQDRELTCWEEVAQSGEIPPSCCNFPVAVCRDKMFVFSGQSGAKITNNLFQFEFKDKTWTRIPTEHLLRGSPPPPQRRYGHTMVAFDRHLYVFGGAADNTLPNELHCYDVDFQTWEVVQPSSDSEVGGAEVPERACASEEVPTLTYEERVGFKKSRDVFGLDFGTTSAKQPTQPASELPSGRLFHAAAVISDAMYIFGGTVDNNIRSGEMYRFQFSCYPKCTLHEDYGRLWESRQFCDVEFVLGEKEECVQGHVAIVTARSRWLRRKITQARERLAQKLEQEAAPVPREAPGVAAGGARPPLLHVAIREAEARPFEVLMQFLYTDKIKYPRKGHVEDVLLIMDVYKLALSFQLCRLEQLCRQYIEASVDLQNVLVVCESAARLQLSQLKEHCLNFVVKESHFNQVIMMKEFERLSSPLIVEIVRRKQQPPPRTPLDQPVDIGTSLIQDMKAYLEGAGAEFCDITLLLDGHPRPAHKAILAARSSYFEAMFRSFMPEDGQVNISIGEMVPSRQAFESMLRYIYYGEVNMPPEDSLYLFAAPYYYGFYNNRLQAYCKQNLEMNVTVQNVLQILEAADKTQALDMKRHCLHIIVHQFTKVSKLPTLWSLSQQLLLDIIDSLASHISDKQCAELGADI
notes: Stably expressed in U87 cells by lentivirus; also called LZTR1-FLAG-R810W; LZTR1 RW; not shown: FLAG tag

What was measured:
AXL = AXL (human, UniProt P30530 26-894, limits assumed); assay: IP/MS, U87 cells (summary of Example 1)
Procedure: (§1) Lysates were immunoprecipitated with FLAG affinity matrix and eluted with FLAG peptide. […] Protein gel slices were excised and in-gel digestion performed as previously described (83), with minor modifications. Gel slices were washed with 1:1 A cetonitrile and 100 mM ammonium bicarbonate for 30 min then dehydrated with 100% acetonitrile for 10 min until shrunk. The excess acetonitrile was then removed and the slices dried in speed-vacuum at room temperature for 10 min. Gel slices were reduced with 5 mM DTT for 30 min at 56° C. in an air thermostat, cooled down to room temperature, and alkylated with 11 mM IAA for 30 min with no light. Gel slices were then washed with 100 mM of ammonium bicarbonate and 100% acetonitrile for 10 min each. Excess acetonitrile was removed and dried in a speed-vacuum for 10 min at room temperature and the gel slices were re-hydrated in a solution of 25 ng/μl trypsin in 50 mM ammonium bicarbonate for 30 min on ice and digested overnight at 37° C. in an air thermostat. Digested peptides were collected and further extracted from gel slices in extraction buffer (1:2 ratio by volume of 5% formic acid:acetonitrile) at high speed, shaking in an air thermostat. […] The following modifications were used for protein identification and quantification: oxidation of methionine (M), acetylation of the protein N-terminus, and deamination for asparagine or glutamine (NQ).

EGFR = target: T2, EGFR (human, UniProt P00533 25-1210); assay: IP/MS, U87 cells (summary of Example 1)
T2 construct: also called epidermal growth factor receptor
Procedure: as §1

ALPK2 = ALPK2 (human, UniProt Q86TB3 1-2170); assay: IP/MS, LZTR1 R810W-FLAG, U87
In short: (§2)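 Extracted peptides in 3% acetonitrile/0.1% formic acid ran on a 50 cm C18 column into an Orbitrap Fusion, with MaxQuant identification and spectral counting.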

GTF3C2 = target: T1, GTF3C2; assay: IP/MS, LZTR1 R810W-FLAG, U87
In short: as §2

Chain of ALPK2 (Q86TB3 whole entry, the tested form may be a part): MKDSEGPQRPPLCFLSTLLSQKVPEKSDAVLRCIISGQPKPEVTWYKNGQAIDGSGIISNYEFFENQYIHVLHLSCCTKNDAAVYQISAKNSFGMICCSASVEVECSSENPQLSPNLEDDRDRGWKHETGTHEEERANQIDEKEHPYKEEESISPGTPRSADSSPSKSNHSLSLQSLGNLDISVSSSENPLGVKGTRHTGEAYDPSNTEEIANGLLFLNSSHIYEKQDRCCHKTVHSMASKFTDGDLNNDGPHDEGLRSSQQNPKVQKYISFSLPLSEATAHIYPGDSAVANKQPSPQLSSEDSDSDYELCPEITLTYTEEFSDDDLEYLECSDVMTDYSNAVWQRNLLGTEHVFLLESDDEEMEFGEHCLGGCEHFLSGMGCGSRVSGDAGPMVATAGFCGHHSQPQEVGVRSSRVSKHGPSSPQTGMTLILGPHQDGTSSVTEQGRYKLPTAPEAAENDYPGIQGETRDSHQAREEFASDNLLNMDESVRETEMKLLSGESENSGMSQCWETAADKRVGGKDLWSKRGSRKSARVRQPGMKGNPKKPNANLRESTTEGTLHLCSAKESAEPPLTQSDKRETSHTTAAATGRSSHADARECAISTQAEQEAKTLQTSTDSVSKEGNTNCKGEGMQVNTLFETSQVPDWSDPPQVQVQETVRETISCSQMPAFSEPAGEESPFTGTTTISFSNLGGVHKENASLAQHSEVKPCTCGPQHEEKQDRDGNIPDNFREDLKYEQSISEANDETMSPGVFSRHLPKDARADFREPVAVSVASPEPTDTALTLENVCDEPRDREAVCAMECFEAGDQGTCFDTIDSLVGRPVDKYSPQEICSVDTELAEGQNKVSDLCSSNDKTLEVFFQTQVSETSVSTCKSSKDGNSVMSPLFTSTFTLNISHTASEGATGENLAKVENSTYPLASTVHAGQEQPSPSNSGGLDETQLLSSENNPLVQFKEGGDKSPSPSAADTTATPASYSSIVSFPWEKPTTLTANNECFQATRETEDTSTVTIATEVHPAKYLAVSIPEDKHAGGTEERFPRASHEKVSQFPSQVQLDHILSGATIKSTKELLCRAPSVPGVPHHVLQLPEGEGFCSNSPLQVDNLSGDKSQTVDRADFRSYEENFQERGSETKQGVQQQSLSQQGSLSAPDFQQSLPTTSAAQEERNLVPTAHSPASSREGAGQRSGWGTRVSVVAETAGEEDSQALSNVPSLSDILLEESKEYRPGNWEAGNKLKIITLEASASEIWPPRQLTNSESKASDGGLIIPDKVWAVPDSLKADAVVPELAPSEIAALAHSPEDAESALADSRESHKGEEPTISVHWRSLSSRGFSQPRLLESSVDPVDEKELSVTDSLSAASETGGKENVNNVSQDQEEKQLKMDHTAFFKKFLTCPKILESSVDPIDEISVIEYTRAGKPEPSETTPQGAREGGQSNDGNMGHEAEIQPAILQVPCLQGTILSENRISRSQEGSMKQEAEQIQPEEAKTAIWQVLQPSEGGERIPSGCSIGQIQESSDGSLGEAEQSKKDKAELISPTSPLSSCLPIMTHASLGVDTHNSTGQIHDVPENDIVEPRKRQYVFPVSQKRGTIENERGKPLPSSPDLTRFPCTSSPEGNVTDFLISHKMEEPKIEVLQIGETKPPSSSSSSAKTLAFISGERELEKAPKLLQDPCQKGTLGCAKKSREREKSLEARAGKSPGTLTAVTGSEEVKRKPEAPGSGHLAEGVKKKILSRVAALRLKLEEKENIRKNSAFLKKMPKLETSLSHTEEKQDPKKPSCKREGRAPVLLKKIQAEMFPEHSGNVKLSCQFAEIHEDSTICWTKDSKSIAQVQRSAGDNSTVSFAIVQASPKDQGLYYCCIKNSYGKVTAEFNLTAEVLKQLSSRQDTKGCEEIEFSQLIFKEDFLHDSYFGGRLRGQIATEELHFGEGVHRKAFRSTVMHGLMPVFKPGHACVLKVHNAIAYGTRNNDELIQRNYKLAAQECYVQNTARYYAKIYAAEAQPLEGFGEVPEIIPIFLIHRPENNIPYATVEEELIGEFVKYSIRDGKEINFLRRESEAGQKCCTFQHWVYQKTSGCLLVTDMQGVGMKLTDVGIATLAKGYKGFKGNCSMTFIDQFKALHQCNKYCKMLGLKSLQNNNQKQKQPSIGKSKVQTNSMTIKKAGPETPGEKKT

Binder | binding result (AXL) | binding result (EGFR) | binding result (ALPK2) | binding result (GTF3C2)
B1 | binds | binds | – | –
B2 | – | – | binds | binds
